The text below walks through data of paper doi:10.1101/580944 (bioRxiv, 2019).

Like-named read-outs stand apart in the source and are kept apart here.

Data set [1] has as its target T1, FtsZ (E. coli (by the printed UniProt entry; not said in words for the construct)). The experiment in a line: FRAP.
Data set [2] concerns the target T1, FtsZ (E. coli). Nature of the data set: single molecule tracking.
Data set [3] addresses T1, FtsZ (E. coli). Nature of the data set: single molecule tracking. This is another data set of the same source.
Data set [4] deals with the molecule itself. Nature of the data set: SEC. (In general: Size exclusion chromatography separates by hydrodynamic size, large species first.)

In data set [1], FtsZ (natural protein) had an FRAP recovery half-time (at 6.0 μM ZapA) of 6.66 s and an FRAP recovery half-time (in the absence of ZapA) of 7.63 s. In data set [2], the lifetime of single FtsZ monomers in the filaments (with ZapA) amounted to 6.01 s and the lifetime of single FtsZ monomers in the filaments (without ZapA) was 6.59 s.

Take ZapA-Cy5 (natural protein): the FRAP recovery half-time in data set [1] is 3.01 s. Also, the values for the lifetime of single molecules on FtsZ filaments in data set [2] and in data set [3] were 0.94 s and 0.95, respectively.

B1: ZapA (natural protein, UniProt P0ADS2 1-109, looked up)
chain: MSAQPVDIQIFGRSLRVNCPPDQRDALNQAADDLNQRLQDLKERTRVTNTEQLVFIAALNISYELAQEKAKTRDYAASMEQRIRMLQQTIEQALLEQGRITEKTNQNFE
For the molecule B1, the binding result in data set [4] is given as “binds”.
